Here are results for 1 substance from publication PMC7995010.

What is called stoichiometry N is a count of units in the complex or per binding partner.

The target in the assay is ACE2‐Fc produced in glycoengineered ΔXT/FT Nicotiana benthamiana (human) (UniProt Q9BYF1). Put plainly: SEC-MALS; isolated dimer fraction of ACE2‐Fc; native molecular mass by MALS. A general note: Size exclusion chromatography separates by hydrodynamic size, large species first.

In turn, “ACE2‐Fc produced in glycoengineered ΔXT/FT Nicotiana benthamiana (from UniProt Q9BYF1 18-615) (Fc fusion)” returned a stoichiometry N of 2.
